Results as given in patent publication US20170002075A1 (AbbVie / Abbott, published 2017).

Assays:
[1] = target: T1, hRAGE (1-331) / human sRAGE 1-331, V#400 (human, UniProt Q15109 23-331); test: competition ELISA on coated hRAGE (1-331); competitor biotinylated m11E6 at 0.3 µg/ml
T1 construct: also called sRAGE [RAGE (1-331)]; RAGE (antigen of the Biacore runs)
Protocol: ELISA plates (Costar 3369) were coated overnight at 4° C. with 50 μl/well of 2 μg/ml hRAGE (1-331) in 0.2 M sodium carbonate-bicarbonate buffer, pH 9.4, washed with Wash Buffer (PBS containing 0.1% Tween 20), and blocked for 1 hr at room temperature with 200 pd/well of 2% nonfat dry milk in PBS. […] After incubating the plates for 1 hr at room temperature, and washing with Wash Buffer, bound antibodies were detected using 100 μl/well of 1:10,000 dilution of HRP-conjugated streptavidin (Fitzgerald) in ELISA buffer. After incubating for 1 hr at room temperature, and washing with Wash Buffer, color development was performed by adding 100 μl/well of TMB Buffer (Zymed). After incubating for 15 min at room temperature, color development was stopped by adding 50 μl/well of IN hydrochloric acid. Absorbance was read at 490 nm.

[2] = target: T1, hRAGE (1-331) / human sRAGE 1-331, V#400; test: Biacore SPR, mAb captured via anti-human Fc, sRAGE (1-331) injected 30-0.12 nM, PBS-P buffer, 1:1 fit
From the text: Biacore 2000 and Biacore T100 instruments were used to measure anti-RAGE mAb binding kinetics. The assay format for mAb affinity analysis was Fc-based capture via immobilized anti-Fc antibodies. A standard amine coupling protocol was employed to immobilize Fc-specific IgG via primary amines to the carboxy-methyl (CM) dextran surface of CM5 sensorchips (Biacore). For the study of mouse anti-RAGE mAbs, anti-mouse Fc (Biacore, anti-mouse, BR-1005-14) was used as the immobilized capture reagent and for the study of humanized anti-RAGE mAbs, anti-human Fc (Pierce 31125) was used as the immobilized capture reagent. An automated protocol, available on the Biacore 2000 and Biacore T100, was used to immobilize 8000-10000 RU of capture reagent in all 4 flowcells of the sensorchip. Briefly, the CM-dextran surfaces were activated by freshly prepared 1:1 50 mM N-hydroxysuccinimide (NHS):200 mM 3-(N,N-dimethylamino) propyl-N-ethylcarbodiimide (EDC). Then the anti-Fc IgG capture reagent (20 ug/ml in 10 mM sodium acetate, pH4.5) was applied to the surface followed by deactivation of the surface and blocking of the residual reactive sites with 1M ethanolamine (pH 8.5).
The running buffer employed was PBS-P [1×PBS (Sigma P3813), pH 7.4, 0.005% P20 surfactant (Biacore)] for the humanized antibodies. Each experimental cycle consisted of the following steps: 1) anti-RAGE mAbs were captured in flowcells 2, 3 or 4 to a level of 50-200 RU (depending on the antigen). All measurements were referenced against flowcell 1 which had no captured anti-RAGE mAb. 2) Antigen was injected through all 4 flowcells, 240 ul at 80 ul/min. After the antigen injection, dissociation was monitored for 600 seconds at 80 ul/min. 3) the anti-Fc capture surface was regenerated with low pH glycine. For kinetic determinations, antigen injections were a 3 fold dilution series from either 30 nM-0.12 nM (for sRAGE [RAGE (1-331)] and buffer only in randomized duplicates.
Data were processed using either Biacore evaluation software or Scrubber 2.0 software (BioLogic Software). Briefly, the data were double referenced by first, subtracting the signal from the reference cell and second, by subtracting the signal from buffer-only injections.

[3] = target: T2, recombinant human RAGE (plate coat of the competition ELISA of Example 1.4); test: competition ELISA on plates coated with recombinant human RAGE (2 µg/mL); competitor: biotinylated hybridoma-derived 11E6 (11E6-biotin), streptavidin-HRP, OD 450 nm; the unit comes from the axis 'Log MAbs (M)'
T2 construct: not shown: The carrier of the coated preparation, if it had one
T2 sequence (chain, as listed by the source limits assumed): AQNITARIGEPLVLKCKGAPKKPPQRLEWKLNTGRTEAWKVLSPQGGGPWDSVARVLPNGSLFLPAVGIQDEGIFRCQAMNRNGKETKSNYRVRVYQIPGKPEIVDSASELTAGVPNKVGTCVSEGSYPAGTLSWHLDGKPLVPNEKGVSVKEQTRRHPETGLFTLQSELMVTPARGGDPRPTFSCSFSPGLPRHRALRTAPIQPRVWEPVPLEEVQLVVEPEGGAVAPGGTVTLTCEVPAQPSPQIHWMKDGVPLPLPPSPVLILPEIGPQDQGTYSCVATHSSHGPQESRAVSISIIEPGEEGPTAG
Protocol: (§1) The purified chimeric anti-human RAGE monoclonal antibodies were tested for their ability to bind human RAGE in a competition ELISA. […] Equal volumes (50 μL) of each recombinant chimeric anti-human RAGE monoclonal antibodies or hybridoma-derived anti-human RAGE monoclonal antibodies and each corresponding biotinylated hybridoma-derived anti-RAGE mAbs were mixed. 50 μL of this mixture was then added to ELISA plates pre-coated with recombinant human RAGE at 2 μg/mL and incubated for 1.5 hours at room temperature. Wells were washed three times with PBS+0.05% Tween-20. Streptavidin HRP (1 mg/mL) was diluted 1:16000 in PBST+10% Superblock; 50 µL/well was added and the plates incubated for 1 hour at room temperature. Plates were washed 3 times with PBS+0.05% Tween-20. 50 µL of TMB solution (Sigma, St Louis, Mo.) was added to each well and incubated for 10 minutes at room temperature. The reaction was stopped by addition of IN sulphuric acid. Plates were read spectrophotometrically at a wavelength of 450 nm.

[4] = target: T2, recombinant human RAGE (plate coat of …); test: competition ELISA on plates coated with recombinant human RAGE (2 µg/mL); competitor: biotinylated hybridoma-derived 7F9 (7F9-biotin), streptavidin-HRP, OD 450 nm; the unit comes from the axis 'Log MAbs (M)'
Protocol: as §1

T1 sequence (Q15109 23-331): as the sequence (chain, as listed by the source limits assumed) above

Row | Binder | IC50 [1] [nM] | other results
1 | 11E6-recombinant (antibody, V domains shown, also called recombinant chimeric anti-human RAGE monoclonal antibody 11E6 (human IgG1/kappa)) VH: QIQLVQSGPELKKPGETVKISCKASGYTFTNFGMNWVKQAPGKGLKWMGYINTNTGESIYSEEFKGRFAFSLETSASTAYLQINNLKNEDTATYFCARSRMVTAYGMDYWGQGTSVTVSS VL: DIVMTQSQKFMSTSVGDRVSITCKASQNVGTAVAWYQQRPGQSPKLLIFSASNRYTGVPDRFTGSGSGTDFTLTLSNMQPEDLADYFCQQYSSYPLTFGVGTKLELKR |  | EC50 [3]: 64.7 nM
2 | 7F9-recombinant (antibody, V domains shown, also called recombinant chimeric anti-human RAGE monoclonal antibody 7F9 (human IgG1/kappa)) VH: EEKLEESGGGLVQLGGSMKISCVASGFTLSNYWMDWVRQSPEKGLEWIAEIRLKSNYYSTHYAESVKGRFSISRDDSKGSVSLQMDNLTAEDTGIYFCARNAYWYFDVWGTGTTVTVSS VL: DIVMTQSHKFMSTSVGDRVSATCKASQDVGTSVAWYQQKLGQSPKLLIYWTSTRHTGVPDRFTGSGSGTDFTLTISNVQSEDLADYFCQQYNNYPLTFGDGTKLELKR |  | EC50 [4]: 108 nM
3 | humanized anti-RAGE antibody h11E6.1 (antibody, V domains shown, Full-length humanized antibody transiently produced in 293-6E cells) VH: EVQLVQSGSELKKPGASVKVSCKASGYTFTNFGMNWVRQAPGQGLEWMGYINTNTGESIYSEEFKGRFVFSLDTSVSTAYLQICSLKAEDTAVYYCARSRMVTAYGMDYWGQGTTVTVSS VL: DIQMTQSPSSLSASVGDRVTITCKASQNVGTAVAWYQQKPGKAPKLLIYSASNRYTGVPSRFSGSGSGTDFTLTISSLQPEDFATYYCQQYSSYPLTFGQGTKLEIKR | 19.7 | 
4 | humanized anti-RAGE antibody h11E6.3 (antibody, V domains shown, Full-length humanized antibody transiently produced in 293-6E cells) VH: EVQLVQSGSELKKPGASVKVSCKASGYTFTNFGMNWVRQAPGQGLEWMGYINTNTGESIYSEEFKGRFVFSLDTSVSTAYLQICSLKAEDTAVYYCARSRMVTAYGMDYWGQGTTVTVSS VL: EIVMTQSPATLSLSPGERATLSCKASQNVGTAVAWYQQKPGQAPRLLIYSASNRYTGIPARFSGSGSGTDFTLTISSLQSEDFAVYYCQQYSSYPLTFGQGTKLEIKR | 18.8 | 
5 | humanized anti-RAGE antibody h11E6.7 (antibody, V domains shown, Full-length humanized antibody transiently produced in 293-6E cells) VH: EIQLVQSGSELKKPGASVKVSCKASGYTFTNFGMNWVRQAPGQGLEWMGYINTNTGESIYSEEFKGRFVFSLDTSVSTAYLQICSLKAEDTAVYFCARSRMVTAYGMDYWGQGTTVTVSS VL: EIVMTQSPATLSLSPGERATLSCKASQNVGTAVAWYQQKPGQAPRLLIYSASNRYTGIPARFSGSGSGTDFTLTISSLQSEDFAVYYCQQYSSYPLTFGQGTKLEIKR | 15.5 | 
6 | humanized anti-RAGE antibody h11E6.5 (antibody, V domains shown, Full-length humanized antibody transiently produced in 293-6E cells) VH: EIQLVQSGSELKKPGASVKVSCKASGYTFTNFGMNWVRQAPGQGLEWMGYINTNTGESIYSEEFKGRFVFSLDTSVSTAYLQICSLKAEDTAVYFCARSRMVTAYGMDYWGQGTTVTVSS VL: DIQMTQSPSSLSASVGDRVTITCKASQNVGTAVAWYQQKPGKAPKLLIYSASNRYTGVPSRFSGSGSGTDFTLTISSLQPEDFATYYCQQYSSYPLTFGQGTKLEIKR | 16.1 | 
7 | humanized anti-RAGE antibody h11E6.4 (antibody, V domains shown, Full-length humanized antibody transiently produced in 293-6E cells) VH: EVQLVQSGSELKKPGASVKVSCKASGYTFTNFGMNWVRQAPGQGLEWMGYINTNTGESIYSEEFKGRFVFSLDTSVSTAYLQICSLKAEDTAVYYCARSRMVTAYGMDYWGQGTTVTVSS VL: EIVMTQSPATLSLSPGERATLSCKASQNVGTAVAWYQQKPGQSPRLLIFSASNRYTGVPARFSGSGSGTDFTLTISSLQSEDFAVYFCQQYSSYPLTFGQGTKLEIKR | 14.1 | 

Second part, led by results:

Row | IC50 [1] [nM] | Binder | other results
8 | 19.9 | humanized anti-RAGE antibody h11E6.11 (antibody, V domains shown, Full-length humanized antibody transiently produced in 293-6E cells) VH: EVQLVQSGAEVKKPGASVKVSCKASGYTFTNFGMNWVRQAPGQGLEWMGYINTNTGESIYSEEFKGRVTMTRDTSTSTAYMELSSLRSEDTAVYYCARSRMVTAYGMDYWGQGTSVTVSS VL: EIVMTQSPATLSLSPGERATLSCKASQNVGTAVAWYQQKPGQAPRLLIYSASNRYTGIPARFSGSGSGTDFTLTISSLQSEDFAVYYCQQYSSYPLTFGQGTKLEIKR | 
9 | 11.3 | humanized anti-RAGE antibody h11E6.12 (antibody, V domains shown, Full-length humanized antibody transiently produced in 293-6E cells) VH: EVQLVQSGAEVKKPGASVKVSCKASGYTFTNFGMNWVRQAPGQGLEWMGYINTNTGESIYSEEFKGRVTMTRDTSTSTAYMELSSLRSEDTAVYYCARSRMVTAYGMDYWGQGTSVTVSS VL: EIVMTQSPATLSLSPGERATLSCKASQNVGTAVAWYQQKPGQSPRLLIFSASNRYTGVPARFSGSGSGTDFTLTISSLQSEDFAVYFCQQYSSYPLTFGQGTKLEIKR | Kd [2]: 0.083 nM; koff [2]: 0.0017 s⁻¹; kon [2]: 2e+07 M⁻¹ s⁻¹
10 | 14 | humanized anti-RAGE antibody h11E6.15 (antibody, V domains shown, Full-length humanized antibody transiently produced in 293-6E cells) VH: EIQLVQSGAEVKKPGASVKVSCKASGYTFTNFGMNWVRQAPGQGLEWMGYINTNTGESIYSEEFKGRFTFTLDTSTSTAYMELSSLRSEDTAVYFCARSRMVTAYGMDYWGQGTSVTVSS VL: EIVMTQSPATLSLSPGERATLSCKASQNVGTAVAWYQQKPGQAPRLLIYSASNRYTGIPARFSGSGSGTDFTLTISSLQSEDFAVYYCQQYSSYPLTFGQGTKLEIKR | 
11 | 9.2 | humanized anti-RAGE antibody h11E6.16 (antibody, V domains shown, Full-length humanized antibody transiently produced in 293-6E cells) VH: EIQLVQSGAEVKKPGASVKVSCKASGYTFTNFGMNWVRQAPGQGLEWMGYINTNTGESIYSEEFKGRFTFTLDTSTSTAYMELSSLRSEDTAVYFCARSRMVTAYGMDYWGQGTSVTVSS VL: EIVMTQSPATLSLSPGERATLSCKASQNVGTAVAWYQQKPGQSPRLLIFSASNRYTGVPARFSGSGSGTDFTLTISSLQSEDFAVYFCQQYSSYPLTFGQGTKLEIKR | Kd [2]: 0.05 nM; koff [2]: 0.0014 s⁻¹; kon [2]: 2.8e+07 M⁻¹ s⁻¹
12 | 17.9 | humanized anti-RAGE antibody h11E6.9 (antibody, V domains shown, Full-length humanized antibody transiently produced in 293-6E cells) VH: EVQLVQSGAEVKKPGASVKVSCKASGYTFTNFGMNWVRQAPGQGLEWMGYINTNTGESIYSEEFKGRVTMTRDTSTSTAYMELSSLRSEDTAVYYCARSRMVTAYGMDYWGQGTSVTVSS VL: DIQMTQSPSSLSASVGDRVTITCKASQNVGTAVAWYQQKPGKAPKLLIYSASNRYTGVPSRFSGSGSGTDFTLTISSLQPEDFATYYCQQYSSYPLTFGQGTKLEIKR | 
13 | 16.8 | humanized anti-RAGE antibody h11E6.13 (antibody, V domains shown, Full-length humanized antibody transiently produced in 293-6E cells) VH: EIQLVQSGAEVKKPGASVKVSCKASGYTFTNFGMNWVRQAPGQGLEWMGYINTNTGESIYSEEFKGRFTFTLDTSTSTAYMELSSLRSEDTAVYFCARSRMVTAYGMDYWGQGTSVTVSS VL: DIQMTQSPSSLSASVGDRVTITCKASQNVGTAVAWYQQKPGKAPKLLIYSASNRYTGVPSRFSGSGSGTDFTLTISSLQPEDFATYYCQQYSSYPLTFGQGTKLEIKR | 
14 | 10.8 | humanized anti-RAGE antibody h11E6.8 (antibody, V domains shown, Full-length humanized antibody transiently produced in 293-6E cells) VH: EIQLVQSGSELKKPGASVKVSCKASGYTFTNFGMNWVRQAPGQGLEWMGYINTNTGESIYSEEFKGRFVFSLDTSVSTAYLQICSLKAEDTAVYFCARSRMVTAYGMDYWGQGTTVTVSS VL: EIVMTQSPATLSLSPGERATLSCKASQNVGTAVAWYQQKPGQSPRLLIFSASNRYTGVPARFSGSGSGTDFTLTISSLQSEDFAVYFCQQYSSYPLTFGQGTKLEIKR | Kd [2]: 0.033 nM; koff [2]: 0.00084 s⁻¹; kon [2]: 2.5e+07 M⁻¹ s⁻¹
